# Data published in publication PMC8041789.
# Assays:
# [1] = target: von Willebrand factor-binding protein (recombinant vWbp) (S. aureus); assay: AFM single-molecule force spectroscopy; vWF-modified tips probing vWbp-modified gold supports (NHS/EDC coupling); PBS; 10 µm x 10 µm areas
# [2] = target: clumping factor A (ClfA wild type) on S. aureus ClfA+ cells (S. aureus) (UniProt Q53653); assay: AFM single-molecule force spectroscopy; vWbp-modified tips probing ClfA+ cells; contact time 500 ms before retraction; PBS
# [3] = target: clumping factor A (ClfA wild type) on S. aureus ClfA+ cells (S. aureus) (UniProt Q53653); assay: AFM single-molecule force spectroscopy; vWbp-modified tips probing ClfA+ cells; minimum contact time (~100 ms); PBS
substance,measurement,setting,value
von Willebrand factor (human plasma vWF) (from UniProt P04275 764-2813) (natural protein),binding frequency,[1],24%
same,rupture force,[1],136 pN
von Willebrand factor-binding protein (recombinant vWbp) (natural protein),binding frequency,[2],11%
same,rupture force,[2],446 pN
same,binding frequency,[3],3%
